The assay deals with T1, HLA-A*02:01 (peptide-receptive MHC class I monomer after UV-ligand exchange) (human).
T1 construct: Monomers made with a UV-sensitive peptide that is cleaved by UV and exchanged for the test peptide; captured on streptavidin plates; also called MHC molecules
The experiment in a line: UV-ligand exchange + anti-b2m ELISA; exchange yield grade: + >=10%, ++ >=20%, +++ >=50, ++++ >=75%. The source says: Candidate peptides for T cell based therapies according to the present invention were further tested for their MHC binding capacity (affinity). The individual peptide-MHC complexes were produced by UV-ligand exchange, where a UV-sensitive peptide is cleaved upon UV-irradiation, and exchanged with the peptide of interest as analyzed. Only peptide candidates that can effectively bind and stabilize the peptide-receptive MHC molecules prevent dissociation of the MHC complexes. To determine the yield of the exchange reaction, an ELISA was performed based on the detection of the light chain (β2m) of stabilized MHC complexes. The assay was performed as generally described in Rodenko et al. (Rodenko et al., 2006).
96 well MAXISorp plates (NUNC) were coated over night with 2 ug/ml streptavidin in PBS at room temperature, washed 4× and blocked for 1 h at 37° C. in 2% BSA containing blocking buffer. Refolded HLA-A*02:01/MLA-001 monomers served as standards, covering the range of 15-500 ng/ml. Peptide-MHC monomers of the UV-exchange reaction were diluted 100 fold in blocking buffer. Samples were incubated for 1 h at 37° C., washed four times, incubated with 2 ug/ml HRP conjugated anti-β2m for 1 h at 37° C., washed again and detected with TMB solution that is stopped with […]. Absorption was measured at 450 nm. Candidate peptides that show a high exchange yield (preferably higher than 50%, most preferred higher than 75%) are generally preferred for a generation and production of antibodies or fragments thereof, and/or T cell receptors or fragments thereof, as they show sufficient avidity to the MHC molecules and prevent dissociation of the MHC complexes.

A value given as a limit tells only on which side of the number the result lay.

B1: peptide SLAADIPRL (SEQ ID NO: 120) (peptide)
peptide: SLAADIPRL
For the molecule B1, the peptide exchange yield lay within 50 to 75%.

B2: peptide KMLGLTVSL (SEQ ID NO: 30) (peptide)
peptide: KMLGLTVSL
With B2, the peptide exchange yield lay within 50 to 75%.

B3: peptide RLLQDPVGV (SEQ ID NO: 31) (peptide)
peptide: RLLQDPVGV
For the molecule B3, the peptide exchange yield is no less than 75%.

B4: peptide GLSETILAV (SEQ ID NO: 25) (peptide)
peptide: GLSETILAV
As to B4, the peptide exchange yield was no less than 75%.

B5: peptide KMLDEAVFQV (SEQ ID NO: 26) (peptide)
peptide: KMLDEAVFQV
As to B5, the peptide exchange yield is no less than 75%.

B6: peptide GLISSLNEI (SEQ ID NO: 38) (peptide)
peptide: GLISSLNEI
With B6, the peptide exchange yield is no less than 75%.

B7: peptide TMEEMIFEV (SEQ ID NO: 21) (peptide)
peptide: TMEEMIFEV
For B7, the peptide exchange yield was in the range of 50 to 75%.

B8: peptide SMYDKVLML (SEQ ID NO: 105) (peptide)
peptide: SMYDKVLML
For the molecule B8, the peptide exchange yield was no less than 75%.

B9: peptide KMPDDVWLV (SEQ ID NO: 106) (peptide)
peptide: KMPDDVWLV
With B9, the peptide exchange yield is no less than 75%.

B10: peptide VLLTTAVEV (SEQ ID NO: 19) (peptide)
peptide: VLLTTAVEV
In the case of B10, the peptide exchange yield lay in the range of 50 to 75%.

B11: peptide VILDLPLVI (SEQ ID NO: 16) (peptide)
peptide: VILDLPLVI
Regarding B11, the peptide exchange yield is 50 to 75%.

B12: peptide ILIETKLVL (SEQ ID NO: 14) (peptide)
peptide: ILIETKLVL
Turning to B12, the peptide exchange yield lay in the range of 50 to 75%.

B13: peptide ALWVAVPKA (SEQ ID NO: 46) (peptide)
peptide: ALWVAVPKA
Turning to B13, the peptide exchange yield was in the range of 50 to 75%.

B14: peptide LVFEGIMEV (SEQ ID NO: 34) (peptide)
peptide: LVFEGIMEV
Consider B14, for which the peptide exchange yield was in the range of 50 to 75%.

B15: peptide ALLVRLQEV (SEQ ID NO: 116) (peptide)
peptide: ALLVRLQEV
As to B15, the peptide exchange yield is no less than 75%.

B16: peptide SLDIITITV (SEQ ID NO: 27) (peptide)
peptide: SLDIITITV
For B16, the peptide exchange yield was no less than 75%.

B17: peptide LLPEKSWEI (SEQ ID NO: 22) (peptide)
peptide: LLPEKSWEI
As to B17, the peptide exchange yield is 50 to 75%.

B18: peptide KAYQELLATV (SEQ ID NO: 41) (peptide)
peptide: KAYQELLATV
Consider B18, for which the peptide exchange yield was in the range of 50 to 75%.

B19: peptide AMYGTKLETI (SEQ ID NO: 107) (peptide)
peptide: AMYGTKLETI
Take B19: the peptide exchange yield was no less than 75%.

B20: peptide MLDEILLQL (SEQ ID NO: 20) (peptide)
peptide: MLDEILLQL
As to B20, the peptide exchange yield is 50 to 75%.

B21: peptide ALIVGIPSV (SEQ ID NO: 44) (peptide)
peptide: ALIVGIPSV
With B21, the peptide exchange yield is no less than 75%.

B22: peptide ALGEISVSV (SEQ ID NO: 18) (peptide)
peptide: ALGEISVSV
Take B22: the peptide exchange yield fell in the range of 50 to 75%.

B23: peptide LLSEPSLLRTV (SEQ ID NO: 125) (peptide)
peptide: LLSEPSLLRTV
Take B23: the peptide exchange yield lay in the range of 50 to 75%.

B24: peptide SLIGLDLSSV (SEQ ID NO: 48) (peptide)
peptide: SLIGLDLSSV
B24: the peptide exchange yield lay within 50 to 75%.

B25: peptide FLMEEVHMI (SEQ ID NO: 24) (peptide)
peptide: FLMEEVHMI
For the molecule B25, the peptide exchange yield is 50 to 75%.

B26: peptide SLFYNELHYV (SEQ ID NO: 37) (peptide)
peptide: SLFYNELHYV
As to B26, the peptide exchange yield lay within 50 to 75%.

B27: peptide FLLDSAPLNV (SEQ ID NO: 117) (peptide)
peptide: FLLDSAPLNV
Regarding B27, the peptide exchange yield was no less than 75%.

B28: peptide RMDGAVTSV (SEQ ID NO: 36) (peptide)
peptide: RMDGAVTSV
With B28, the peptide exchange yield was in the range of 50 to 75%.

B29: peptide SLLTAISEV (SEQ ID NO: 15) (peptide)
peptide: SLLTAISEV
Take B29: the peptide exchange yield is 50 to 75%.

B30: peptide GLLDPGMLVNI (SEQ ID NO: 4) (peptide)
peptide: GLLDPGMLVNI
As to B30, the peptide exchange yield was in the range of 50 to 75%.

B31: peptide YLWSEVFSM (SEQ ID NO: 43) (peptide)
peptide: YLWSEVFSM
Consider B31, for which the peptide exchange yield lay in the range of 50 to 75%.

B32: peptide GLLEALLKI (SEQ ID NO: 47) (peptide)
peptide: GLLEALLKI
For the molecule B32, the peptide exchange yield lay within 50 to 75%.

B33: peptide FMGDVFINV (SEQ ID NO: 35) (peptide)
peptide: FMGDVFINV
B33: the peptide exchange yield was no less than 75%.

B34: peptide LLLPGVIKTV (SEQ ID NO: 112) (peptide)
peptide: LLLPGVIKTV
For B34, the peptide exchange yield was 50 to 75%.

B35: peptide GLTETGLYRI (SEQ ID NO: 110) (peptide)
peptide: GLTETGLYRI
B35: the peptide exchange yield was in the range of 50 to 75%.

B36: peptide ALTSLELEL (SEQ ID NO: 32) (peptide)
peptide: ALTSLELEL
In the case of B36, the peptide exchange yield lay in the range of 50 to 75%.

B37: peptide SMMPDELLTSL (SEQ ID NO: 122) (peptide)
peptide: SMMPDELLTSL
For B37, the peptide exchange yield fell in the range of 50 to 75%.

B38: peptide AAASLIRLV (SEQ ID NO: 126) (peptide)
peptide: AAASLIRLV
With B38, the peptide exchange yield was in the range of 10 to 20%.

B39: peptide MLFEGLDLVSA (SEQ ID NO: 12) (peptide)
peptide: MLFEGLDLVSA
Take B39: the peptide exchange yield fell in the range of 50 to 75%.

B40: peptide RLALNTPKV (SEQ ID NO: 49) (peptide)
peptide: RLALNTPKV
As to B40, the peptide exchange yield lay within 20 to 50%.

B41: peptide VLAEIDPKQLV (SEQ ID NO: 3) (peptide)
peptide: VLAEIDPKQLV
As to B41, the peptide exchange yield was in the range of 50 to 75%.

B42: peptide SLMLVTVEL (SEQ ID NO: 17) (peptide)
peptide: SLMLVTVEL
Turning to B42, the peptide exchange yield was 50 to 75%.

B43: peptide YMLEHVITL (SEQ ID NO: 121) (peptide)
peptide: YMLEHVITL
B43: the peptide exchange yield lay within 50 to 75%.

B44: peptide SLSGEIILHSV (SEQ ID NO: 45) (peptide)
peptide: SLSGEIILHSV
Consider B44, for which the peptide exchange yield fell in the range of 20 to 50%.

B45: peptide AMLEEVNYI (SEQ ID NO: 1) (peptide)
peptide: AMLEEVNYI
With B45, the peptide exchange yield is 50 to 75%.

B46: peptide ILLDDQFQPKL (SEQ ID NO: 108) (peptide)
peptide: ILLDDQFQPKL
Take B46: the peptide exchange yield was no less than 75%.

B47: peptide KLPSFLANV (SEQ ID NO: 118) (peptide)
peptide: KLPSFLANV
Consider B47, for which the peptide exchange yield fell in the range of 50 to 75%.

B48: peptide ILVSQLEQL (SEQ ID NO: 28) (peptide)
peptide: ILVSQLEQL
For the molecule B48, the peptide exchange yield was no less than 75%.

B49: peptide SLFERLVVL (SEQ ID NO: 109) (peptide)
peptide: SLFERLVVL
In the case of B49, the peptide exchange yield was no less than 75%.

B50: peptide ALLPSDCLQEA (SEQ ID NO: 115) (peptide)
peptide: ALLPSDCLQEA
On to B50, for which the peptide exchange yield lay within 50 to 75%.

B51: peptide GLLEDERALQL (SEQ ID NO: 42) (peptide)
peptide: GLLEDERALQL
As for B51, the peptide exchange yield fell in the range of 50 to 75%.

B52: peptide YQIDTVINL (SEQ ID NO: 23) (peptide)
peptide: YQIDTVINL
In the case of B52, the peptide exchange yield lay within 50 to 75%.

B53: peptide KLDKNPNQV (SEQ ID NO: 123) (peptide)
peptide: KLDKNPNQV
Take B53: the peptide exchange yield lay within 50 to 75%.

B54: peptide VMFNFPDQATV (SEQ ID NO: 2) (peptide)
peptide: VMFNFPDQATV
B54: the peptide exchange yield lay in the range of 50 to 75%.

B55: peptide ALLEPGGVLTI (SEQ ID NO: 114) (peptide)
peptide: ALLEPGGVLTI
With B55, the peptide exchange yield fell in the range of 50 to 75%.

B56: peptide FLPEAPAEL (SEQ ID NO: 111) (peptide)
peptide: FLPEAPAEL
For B56, the peptide exchange yield fell in the range of 50 to 75%.

B57: peptide GLLEVQVEV (SEQ ID NO: 40) (peptide)
peptide: GLLEVQVEV
On to B57, for which the peptide exchange yield is 50 to 75%.

B58: peptide GLDPTQFRV (SEQ ID NO: 39) (peptide)
peptide: GLDPTQFRV
For B58, the peptide exchange yield was in the range of 50 to 75%.

B59: peptide FLTAFLVQI (SEQ ID NO: 13) (peptide)
peptide: FLTAFLVQI
Regarding B59, the peptide exchange yield is 50 to 75%.

B60: peptide SLITDLQTI (SEQ ID NO: 124) (peptide)
peptide: SLITDLQTI
For the molecule B60, the peptide exchange yield lay in the range of 50 to 75%.
